According to US20200347137A1 (SYSTIMMUNE, published 2020):
Where a chain is given by its changes, count along the chain named.

B1: Fc-PD224D1 scFv IgG1 null (Fc fusion, not shown: a dimerising Fc or GST; small tags and cut ends)
scFv: EVQLVESGGGLVQPGGSLRLSCTASGFSLSSYAMSWVRQAPGKGLEYIGYIGDTTGIAYASWANGRFTISKDNTKNTVDLQMNSLRAEDTAVYYCARGWSYLDIWGQGTLVTVSSGGGGSGGGGSGGGGSGGGGSALVMTQSPSSLSASVGDRVTITCQASQNIYSNLAWYQQKPGKVPKLLIYQASTLASGVPSRFSGSGYGTDFTLTISSLQPEDVATYYCQGGYYSAALNTFGGGTKVEIK
notes: a component control of the bispecific antibody
B2: PL004B9 mAb (antibody, V domains shown)
VH: EVQLVESGGGLVQPGGSLRLSCTVSGIDLSVINMGWVRQAPGKGLEWIGTITYVGNTYYASWAKGRFTISKTSTTVDLKITSPTTEDTAVYYCARESGTIYYSYFNLWGQGTLVTVSS
VL: AFELTQSPSSLSASVGDRVTIKCQASESISNYLSWYQQIPGKVPKLLIYYASNLASGVPSRFSGSGSGTDFTLTISSLQPEDVATYYCQSYYGGGSAYTFGGGTKVEIK
notes: Anti-PD-L1 clone tested in mAb format
B3: PL221G5 mAb (antibody, V domains shown)
VH: EVQLLESGGGLVQPGGSLRLSCAASGFSFSSGYDMCWVRQAPGKGLEWIACIAAGSAGITYDANWAKGRFTISRDNSKNTLYLQMNSLRAEDTAVYYCARSAFSFDYAMDLWGQGTLVTVSS
VL: DIQMTQSPSTLSASVGDRVTITCQASQSISSHLNWYQQKPGKAPKLLIYKASTLASGVPSRFSGSGSGTEFTLTISSLQPDDFATYYCQQGYSWGNVDNVFGGGTKVEIK
notes: as for B2
B4: PL230C6 mAb (antibody, V domains shown)
VH: QSVEESGGGLVQPGGSLRLSCTASGIDLNTYDMIWVRQAPGKGLEWVGIITYSGSRYYANWAKGRFTISKDNTKNTVYLQMNSLRAEDTAVYYCARDYMSGSHLWGQGTLVTVSS
VL: AYDMTQSPSSVSASVGDRVTIKCQASEDIYSFLAWYQQKPGKAPKLLIHSASSLASGVPSRFSGSGSGTDFTLTISSLQPEDFATYYCQQGYGKNNVDNAFGGGTKVEIK
notes: also called PL23006
B5: PL231H2 mAb (antibody, V domains shown)
VH: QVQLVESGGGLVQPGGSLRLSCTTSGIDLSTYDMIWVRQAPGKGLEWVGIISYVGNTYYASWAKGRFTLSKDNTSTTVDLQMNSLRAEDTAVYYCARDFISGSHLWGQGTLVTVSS
VL: B4 VL with K22N, D28S, Y30S, A34S, H49F, S53T, G93S, N95S
notes: as for B2
B6: PL230C6 Fc-scFv (Fc fusion)
scFv: QSVEESGGGLVQPGGSLRLSCTASGIDLNTYDMIWVRQAPGKGLEWVGIITYSGSRYYANWAKGRFTISKDNTKNTVYLQMNSLRAEDTAVYYCARDYMSGSHLWGQGTLVTVSSGGGGSGGGGSGGGGSGGGGSAYDMTQSPSSVSASVGDRVTIKCQASEDIYSFLAWYQQKPGKAPKLLIHSASSLASGVPSRFSGSGSGTDFTLTISSLQPEDFATYYCQQGYGKNNVDNAFGGGTKVEIK
notes: scFv at the C-terminus of an Fc; The Fc part is not specified; also called PL23006; not shown: The Fc part and the linker joining it to the scFv
B7: PL004B9 Fc-scFv (Fc fusion, not shown: a dimerising Fc or GST; small tags and cut ends)
scFv: EVQLVESGGGLVQPGGSLRLSCTVSGIDLSVINMGWVRQAPGKGLEWIGTITYVGNTYYASWAKGRFTISKTSTTVDLKITSPTTEDTAVYYCARESGTIYYSYFNLWGQGTLVTVSSGGGGSGGGGSGGGGSGGGGSAFELTQSPSSLSASVGDRVTIKCQASESISNYLSWYQQIPGKVPKLLIYYASNLASGVPSRFSGSGSGTDFTLTISSLQPEDVATYYCQSYYGGGSAYTFGGGTKVEIK
notes: scFv at the C-terminus of an Fc
B8: PL221G5 Fc-scFv (Fc fusion)
scFv: EVQLLESGGGLVQPGGSLRLSCAASGFSFSSGYDMCWVRQAPGKGLEWIACIAAGSAGITYDANWAKGRFTISRDNSKNTLYLQMNSLRAEDTAVYYCARSAFSFDYAMDLWGQGTLVTVSSGGGGSGGGGSGGGGSGGGGSDIQMTQSPSTLSASVGDRVTITCQASQSISSHLNWYQQKPGKAPKLLIYKASTLASGVPSRFSGSGSGTEFTLTISSLQPDDFATYYCQQGYSWGNVDNVFGGGTKVEIK
notes: scFv at the C-terminus of an Fc; The Fc part is not specified; not shown: The Fc part and the linker joining it to the scFv
B9: PL221G5 IgG1 null (antibody, V domains shown)
VH: B3 VH
VL: DIQMTQSPSTLSASVGDRVTITCQASQSISSHLNWYQQKPGKAPKLLIYKASTLASGVPSRFSGSGSGTEFTLTISSLQPDDFATYYCQQGYSWGNVDNVFGGGTKVEIKR

target: T1, PD-1 antigen expressed on the surface of cells (human, UniProt Q15116 25-288); experiment: Flow cytometry on CHO cells expressing PD-1, Alexa Fluor 647 anti-human secondary
T1 construct: whole, on cells; also called PD-1 receptor; CHO cell line expressing PD-1 antigen
T1 sequence (Q15116 25-288): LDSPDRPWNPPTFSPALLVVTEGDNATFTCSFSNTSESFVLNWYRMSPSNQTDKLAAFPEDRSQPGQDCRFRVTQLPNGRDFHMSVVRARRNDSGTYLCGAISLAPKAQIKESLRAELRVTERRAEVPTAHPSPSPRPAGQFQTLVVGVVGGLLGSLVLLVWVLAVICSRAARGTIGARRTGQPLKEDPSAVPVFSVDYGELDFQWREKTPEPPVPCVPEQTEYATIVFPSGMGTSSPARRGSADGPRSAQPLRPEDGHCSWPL
Procedure: (§1) Binding of the bispecific antibodies and their components to PD-1 antigen expressed on the surface of CHO cell line was assessed using FACS method. The bispecific antibodies were incubated with CHO cell line expressing PD-1 antigen and then detected with secondary anti-human antibodies directly conjugated to Alexa Fluor 647 fluorochrome. Cellular binding of the test antibodies was analyzed on a flow cytometer BD LSRFortessa.

EC50 (read off the curve)	Binder
~1 nM	B1

target: T2, PD-L1 recombinant protein (human, UniProt Q9NZQ7 19-238, limits assumed); experiment: ForteBio Octet RED96, PD-L1 immobilised, antibody in solution
T2 construct: also called PD-L1 antigen
T2 sequence (Q9NZQ7 19-238 limits assumed): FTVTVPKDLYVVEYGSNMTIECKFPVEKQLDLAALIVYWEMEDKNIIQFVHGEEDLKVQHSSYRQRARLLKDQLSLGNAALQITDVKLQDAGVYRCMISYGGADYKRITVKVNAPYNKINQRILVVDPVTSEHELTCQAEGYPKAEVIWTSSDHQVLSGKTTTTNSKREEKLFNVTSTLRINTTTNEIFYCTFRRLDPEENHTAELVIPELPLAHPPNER
Description: The antigen was immobilized on the sensor chip surface and the tested antibodies were flown over the immobilized antigens.

Kd	koff	kon	Binder
1.37 nM	0.000695 s⁻¹	508000 M⁻¹ s⁻¹	B2
0.483 nM	0.000276 s⁻¹	572000 M⁻¹ s⁻¹	B3
0.769 nM	0.000468 s⁻¹	609000 M⁻¹ s⁻¹	B4
0.781 nM	0.000391 s⁻¹	501000 M⁻¹ s⁻¹	B5
0.868 nM	0.000362 s⁻¹	418000 M⁻¹ s⁻¹	B6
1.54 nM	0.000471 s⁻¹	307000 M⁻¹ s⁻¹	B7
0.412 nM	0.000171 s⁻¹	414000 M⁻¹ s⁻¹	B8

target: T1, PD-1 antigen expressed on the surface …; experiment: Flow cytometry on CHO cells expressing PD-1, Alexa Fluor 647 anti-human secondary. The value is printed beside the curves without a name; the text speaks of a KD. It is assigned to the lower, right curve (triangles) by its position.
Procedure: as §1

Kd	Binder
1.04 nM	B1

target: PD-L1 on CHO-PD-L1 cell line (human, UniProt Q9NZQ7 19-290); experiment: cell-based or functional assay
Sequence (Q9NZQ7 19-290): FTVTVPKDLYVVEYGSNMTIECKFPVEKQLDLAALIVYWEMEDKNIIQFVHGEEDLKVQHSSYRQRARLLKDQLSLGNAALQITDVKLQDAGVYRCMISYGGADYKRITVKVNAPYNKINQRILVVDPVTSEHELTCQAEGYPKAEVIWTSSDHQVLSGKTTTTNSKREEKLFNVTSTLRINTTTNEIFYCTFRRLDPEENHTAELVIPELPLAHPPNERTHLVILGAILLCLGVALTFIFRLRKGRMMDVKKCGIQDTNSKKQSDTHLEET

EC50 (read off the curve), NFAT-luciferase reporter, Jurkat PD-1 cells with CHO-PD-L1 cells	Binder
~0.3 nM	B9
